Experiment [1] has as its target T1, mouse SIRPα extracellular domain + His-tag (NP_031573) (mouse, UniProt P97797 32-373).
T1 chain: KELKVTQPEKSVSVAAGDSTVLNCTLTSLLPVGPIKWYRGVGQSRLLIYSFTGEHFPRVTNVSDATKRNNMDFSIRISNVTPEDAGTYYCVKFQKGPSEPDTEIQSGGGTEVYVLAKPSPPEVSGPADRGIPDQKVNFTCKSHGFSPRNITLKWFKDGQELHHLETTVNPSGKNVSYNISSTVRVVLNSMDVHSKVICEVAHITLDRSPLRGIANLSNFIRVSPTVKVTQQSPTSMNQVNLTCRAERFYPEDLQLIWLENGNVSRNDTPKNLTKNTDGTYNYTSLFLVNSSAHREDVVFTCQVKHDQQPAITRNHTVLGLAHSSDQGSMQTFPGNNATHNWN
Nature of the experiment: SPR, Ab captured, ECD-His analyte. Here is the method: The binding affinity of anti-SIRPα antibodies to the various SIRPα analytes is determined by surface plasmon resonance (SPR) using a ProteOn XPR36 (Bio-Rad). The running buffer for this experiment and all dilutions (except where stated) are done in 1×HBS-EP+. […] The sensorchip is deactivated with 1M ethanolamine HCl for 420 sec at a flowrate of 10 μl/min.
The analyte is injected over the captured antibody for 300 sec at a flowrate of 30 μl/min. The dissociation is done for 600 sec. Two-fold serial dilutions of each SIRP protein (Extracellular Domain+His-Tag) are injected as analyte with the highest concentrations indicated in table 36 below.
(SPR reads the build-up and loss of mass on a sensor chip optically.)

The target in experiment [2] is T2, human SIRPαV1 extracellular domain + His-tag (NP_542970.1) (human, UniProt P78324 31-373).
T2 construct: also called hSIRPαV1; HuSIRPαV1
Nature of the experiment: SPR, Ab captured, ECD-His analyte. In short, it runs like this: (§1)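 SPR; Ab capture surface, ethanolamine-deactivated (1M, 420 s, 10 μl/min). Analyte: SIRP ECD+His, 2-fold dilution series in 1×HBS-EP+. Inject 300 s @ 30 μl/min; dissoc. 600 s.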

Experiment [3] addresses T3, human SIRPαV2 extracellular domain + His-tag (CAA71403.1) (human, UniProt P78324 31-373).
T3 construct: also called hSIRPαV2; HuSIRPαV2
Briefly: SPR, Ab captured, ECD-His analyte. In short, it runs like this: as §1

Experiment [4] addresses T4, human SIRPβ1 extracellular domain + His-tag (NP_006056.2) (human, UniProt O00241 30-371).
T4 construct: also called hSIRPβ1; HuSIRPβ1
Briefly: SPR, Ab captured, ECD-His analyte. The method, boiled down:
as §1

Experiment [5] has as its target T5, human SIRPγ extracellular domain + His-tag (NP_061026.2) (human, UniProt Q9P1W8 29-360).
T5 construct: also called hSIRPγ; HuSIRPγ
Briefly: SPR, Ab captured, ECD-His analyte. The method, boiled down: as §1

The target in experiment [6] is T6, human SIRPβL/SIRPβ1v3 extracellular domain + His-tag (NP_001129316.1) (human, UniProt Q5TFQ8 30-371).
T6 construct: also called hSIRPβ1v3; HuSIRPβ1v3
Briefly: SPR, Ab captured, ECD-His analyte. The method, boiled down: as §1

The target in experiment [7] is full-length human SIRPβ1 D→H on Expi-CHO cells (human, UniProt O00241 30-398). Nature of the experiment: flow cytometry, Expi-CHO cells. The protocol:
These cells are blocked with donkey IgG and incubated on ice with increasing concentrations of antibodies for 60 minutes, washed and stained with AF647-conjugated donkey F(ab′)₂ anti-human IgG antibodies. Stained cells are washed, fixed, and analyzed by flow cytometry. Median fluorescent intensity is determined and used as a measure of antibody binding.
On the technique in general: Flow cytometry measures light scatter and fluorescence of single cells or particles in a stream.

The target in experiment [8] is T2, human SIRPαV1 extracellular domain + …. Nature of the experiment: SPR, Ab captured, ECD-His analyte. The method, boiled down: as §1
The source holds these as a separate data set.

In experiment [9] the target is T3, human SIRPαV2 extracellular domain + …. Nature of the experiment: SPR, Ab captured, ECD-His analyte. In short, it runs like this: as §1
The source holds these as a separate data set.

Experiment [10] deals with T4, human SIRPβ1 extracellular domain + …. Briefly: SPR, Ab captured, ECD-His analyte. The method, boiled down: as §1
This is another data set of the same source.

Experiment [11] has as its target T6, human SIRPβL/SIRPβ1v3 extracellular …. Briefly: SPR, Ab captured, ECD-His analyte. The method, boiled down: as §1
The source holds these as a separate data set.

The target in experiment [12] is T7, full-length human SIRPβ1 (NP_006056.2) on cells (human, UniProt O00241 30-398).
T7 construct: also called β1 WT
Briefly: flow cytometry, U937 SIRPα-KO transfectants. Here is the method:
(§2) Antibody binding to cells expressing full-length human SIRPβ1 (NP_006056.2) and SIRPβL (NP_001129316.1) is evaluated by flow cytometry. SIRPβ1- or SIRPβL-expressing U937^{SIRPα KO} cells are blocked with donkey IgG and incubated on ice with increasing concentrations of antibodies for 60 minutes, washed and stained with AF647-conjugated donkey F(ab′)₂ anti-human IgG secondary reagent. Cells are washed, fixed, and analyzed by flow cytometry. Median fluorescent intensity is determined and used as a measure of antibody binding.

The target in experiment [13] is T8, full-length human SIRPβL (NP_001129316.1) on cells (human, UniProt Q5TFQ8 30-398).
T8 construct: one molecule for U937 SIRPα-KO transfectants (NP_001129316.1) and Expi-CHO transfectants (Q5TFQ8); also called SIRPβ1v3; βL WT
Nature of the experiment: flow cytometry, U937 SIRPα-KO cells expressing full-length human SIRPβL. Here is the method: as §2

The target of experiment [14] is T9, full-length human SIRPγ (NP_061026.2) on cells (human, UniProt Q9P1W8 29-387).
T9 construct: also called CHO-hSIRPγ; γ WT
Briefly: flow cytometry, primary CD3+ T cells. The protocol: (§3) Antibody binding to primary human T cells expressing endogenous SIRPγ is evaluated by flow cytometry. Human peripheral blood mononuclear cells (PBMCs) are blocked with donkey IgG and incubated on ice with increasing concentrations of antibody for 60 minutes, washed and stained with AF647-conjugated donkey F(ab′)₂ anti-human IgG secondary reagent. […] Cells are washed, fixed, and analyzed by flow cytometry. Median fluorescent intensity of CD3+ gated population is determined and used as a measure of antibody binding.

The target in experiment [15] is ED-tagged human SIRPα V2 receptor on Jurkat signaling reporter cells (human, UniProt P78324 31-504). Briefly: cell-based or functional assay.
For experiment [16], the target named is ED-tagged human SIRPα V1 receptor on Jurkat signaling reporter cells (human, UniProt P78324 31-504). Nature of the experiment: cell-based or functional assay.
The target of experiment [17] is T10, full-length human SIRPαV1 (NP_542970.1) on cells (human, UniProt P78324 31-504).
T10 construct: one molecule for CHO-K1 and Expi-CHO transfectants (NP_542970.1) and for endogenous V1 on U-937 cells and on CD14+ monocytes of V1/V1 donors; also called CHO-hSIRPαV1; αV1 WT
Nature of the experiment: flow cytometry, CD14+ monocytes V1V1. The protocol: as §3, with “human” for “human T”, “expressing SIRPα” for “expressing endogenous SIRPγ”, “(PBMCs) from donors genotyped as homozygous for the SIRPα V1 allele, V2 allele, or heterozygous for both alleles” for “(PBMCs)”, “of the CD14+” for “of CD3+ gated”, “population was” for “population is”

Experiment [18] deals with T8, full-length human SIRPβL …. Briefly: flow cytometry, U937 SIRPα-KO transfectants. Here is the method:
as §2

For experiment [19], the target named is T10, full-length human SIRPαV1 (NP_542970.1) …. Briefly: flow cytometry, competition with CD47 tetramer, monocytes V1V1. Here is the method:
(§4) Cells are washed, fixed, and analyzed by flow cytometry. Median fluorescent intensity of CD14+gated population is determined and used as a measure of CD47 binding.

Experiment [20] concerns the target T11, full-length human SIRPαV2 (CAA71403.1) on cells (human, UniProt P78324 31-504).
T11 construct: one molecule for CHO-K1 and Expi-CHO transfectants (CAA71403.1) and for endogenous V2 on THP-1 cells and on CD14+ monocytes of V2/V2 donors; also called CHO-hSIRPαV2; αV2 WT
Briefly: flow cytometry, CD14+ monocytes V2V2. The protocol: as §3, with “human” for “human T”, “expressing SIRPα” for “expressing endogenous SIRPγ”, “(PBMCs) from donors genotyped as homozygous for the SIRPα V1 allele, V2 allele, or heterozygous for both alleles” for “(PBMCs)”, “of the CD14+” for “of CD3+ gated”, “population was” for “population is”

Experiment [21] concerns the target T11, full-length human SIRPαV2 (CAA71403.1) …. Briefly: flow cytometry, competition with CD47 tetramer, monocytes V2V2. The protocol:
as §4

Where two headings read alike, the source gives them in different places.

T3 sequence (P78324 other isoform, or with tags, fused parts or gaps): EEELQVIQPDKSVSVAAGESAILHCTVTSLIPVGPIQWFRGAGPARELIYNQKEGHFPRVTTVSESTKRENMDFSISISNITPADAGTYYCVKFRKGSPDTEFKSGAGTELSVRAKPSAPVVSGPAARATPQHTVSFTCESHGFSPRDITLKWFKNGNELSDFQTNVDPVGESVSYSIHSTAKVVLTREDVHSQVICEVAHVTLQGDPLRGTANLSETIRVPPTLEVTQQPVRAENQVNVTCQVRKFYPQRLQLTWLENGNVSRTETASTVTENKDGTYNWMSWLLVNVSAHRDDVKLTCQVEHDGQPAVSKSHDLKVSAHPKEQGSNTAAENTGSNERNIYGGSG
T2 sequence (P78324 other isoform, or with tags, fused parts or gaps): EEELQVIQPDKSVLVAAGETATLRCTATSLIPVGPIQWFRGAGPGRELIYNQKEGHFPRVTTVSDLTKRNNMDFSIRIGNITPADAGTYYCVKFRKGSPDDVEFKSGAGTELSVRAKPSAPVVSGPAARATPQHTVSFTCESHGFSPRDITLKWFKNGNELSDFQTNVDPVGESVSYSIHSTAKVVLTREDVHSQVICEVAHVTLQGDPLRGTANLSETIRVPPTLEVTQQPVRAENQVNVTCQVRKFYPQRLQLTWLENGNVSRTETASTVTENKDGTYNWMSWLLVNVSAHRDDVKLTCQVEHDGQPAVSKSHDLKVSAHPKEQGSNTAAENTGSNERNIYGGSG
T4 sequence (O00241 other isoform, or with tags, fused parts or gaps): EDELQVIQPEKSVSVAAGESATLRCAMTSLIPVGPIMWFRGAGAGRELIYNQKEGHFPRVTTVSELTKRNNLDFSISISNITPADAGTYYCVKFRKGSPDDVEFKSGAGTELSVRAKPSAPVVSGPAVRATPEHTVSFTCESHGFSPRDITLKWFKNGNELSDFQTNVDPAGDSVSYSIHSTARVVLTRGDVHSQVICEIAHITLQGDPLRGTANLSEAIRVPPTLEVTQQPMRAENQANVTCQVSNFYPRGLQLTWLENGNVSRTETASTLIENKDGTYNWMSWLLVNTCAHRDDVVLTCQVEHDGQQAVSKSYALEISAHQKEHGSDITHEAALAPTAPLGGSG
T7 sequence (O00241 30-398): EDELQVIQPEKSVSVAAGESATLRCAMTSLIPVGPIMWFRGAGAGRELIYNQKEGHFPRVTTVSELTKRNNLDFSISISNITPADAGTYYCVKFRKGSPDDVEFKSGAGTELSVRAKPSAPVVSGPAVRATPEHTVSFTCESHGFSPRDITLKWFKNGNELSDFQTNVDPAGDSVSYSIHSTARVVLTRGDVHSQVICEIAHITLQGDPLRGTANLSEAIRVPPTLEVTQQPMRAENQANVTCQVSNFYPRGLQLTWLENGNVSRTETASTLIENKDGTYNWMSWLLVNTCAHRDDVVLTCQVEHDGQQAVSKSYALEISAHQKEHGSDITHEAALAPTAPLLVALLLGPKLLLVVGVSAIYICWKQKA
T10 sequence (P78324 31-504): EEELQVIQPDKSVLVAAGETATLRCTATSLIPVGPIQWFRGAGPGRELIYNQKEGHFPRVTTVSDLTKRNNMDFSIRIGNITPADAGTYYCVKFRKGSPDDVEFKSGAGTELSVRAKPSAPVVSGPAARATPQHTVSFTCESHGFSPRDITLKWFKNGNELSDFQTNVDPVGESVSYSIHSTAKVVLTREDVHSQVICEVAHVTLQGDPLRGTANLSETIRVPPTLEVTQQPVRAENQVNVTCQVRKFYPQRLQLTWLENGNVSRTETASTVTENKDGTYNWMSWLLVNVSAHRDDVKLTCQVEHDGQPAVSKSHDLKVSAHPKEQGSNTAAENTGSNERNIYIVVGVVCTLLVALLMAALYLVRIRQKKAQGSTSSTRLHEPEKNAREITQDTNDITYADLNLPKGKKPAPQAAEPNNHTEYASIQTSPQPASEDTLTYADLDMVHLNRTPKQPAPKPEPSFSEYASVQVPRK
T8 sequence (Q5TFQ8 30-398): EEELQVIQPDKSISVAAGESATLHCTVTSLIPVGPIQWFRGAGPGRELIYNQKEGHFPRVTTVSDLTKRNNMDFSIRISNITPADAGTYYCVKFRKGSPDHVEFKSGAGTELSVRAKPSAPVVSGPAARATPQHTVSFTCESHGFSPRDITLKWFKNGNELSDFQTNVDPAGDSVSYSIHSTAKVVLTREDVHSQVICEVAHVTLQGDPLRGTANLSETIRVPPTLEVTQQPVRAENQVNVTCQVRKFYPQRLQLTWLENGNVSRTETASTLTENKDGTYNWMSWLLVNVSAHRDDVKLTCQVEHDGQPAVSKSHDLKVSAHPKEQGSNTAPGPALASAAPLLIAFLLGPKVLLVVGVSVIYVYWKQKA
T9 sequence (Q9P1W8 29-387): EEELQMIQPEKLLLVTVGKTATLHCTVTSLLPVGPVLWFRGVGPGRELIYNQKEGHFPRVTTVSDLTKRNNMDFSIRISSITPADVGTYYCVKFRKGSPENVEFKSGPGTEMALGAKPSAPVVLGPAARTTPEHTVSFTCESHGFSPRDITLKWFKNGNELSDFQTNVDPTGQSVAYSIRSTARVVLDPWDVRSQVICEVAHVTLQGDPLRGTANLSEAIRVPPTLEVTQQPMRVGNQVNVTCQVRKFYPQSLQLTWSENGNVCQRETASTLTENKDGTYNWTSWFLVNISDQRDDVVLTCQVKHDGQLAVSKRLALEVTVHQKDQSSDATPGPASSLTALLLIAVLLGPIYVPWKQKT
T6 sequence (Q5TFQ8 other isoform, or with tags, fused parts or gaps): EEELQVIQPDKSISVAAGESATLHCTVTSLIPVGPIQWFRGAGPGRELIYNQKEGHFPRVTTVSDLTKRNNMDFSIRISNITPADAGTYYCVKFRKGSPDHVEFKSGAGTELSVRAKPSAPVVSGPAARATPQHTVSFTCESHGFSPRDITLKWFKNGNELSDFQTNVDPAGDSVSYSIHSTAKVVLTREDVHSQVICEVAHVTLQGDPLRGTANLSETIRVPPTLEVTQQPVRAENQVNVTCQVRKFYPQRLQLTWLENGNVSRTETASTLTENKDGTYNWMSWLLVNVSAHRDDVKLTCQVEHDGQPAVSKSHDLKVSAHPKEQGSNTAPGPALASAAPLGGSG
T11 sequence (P78324 other isoform, or with tags, fused parts or gaps): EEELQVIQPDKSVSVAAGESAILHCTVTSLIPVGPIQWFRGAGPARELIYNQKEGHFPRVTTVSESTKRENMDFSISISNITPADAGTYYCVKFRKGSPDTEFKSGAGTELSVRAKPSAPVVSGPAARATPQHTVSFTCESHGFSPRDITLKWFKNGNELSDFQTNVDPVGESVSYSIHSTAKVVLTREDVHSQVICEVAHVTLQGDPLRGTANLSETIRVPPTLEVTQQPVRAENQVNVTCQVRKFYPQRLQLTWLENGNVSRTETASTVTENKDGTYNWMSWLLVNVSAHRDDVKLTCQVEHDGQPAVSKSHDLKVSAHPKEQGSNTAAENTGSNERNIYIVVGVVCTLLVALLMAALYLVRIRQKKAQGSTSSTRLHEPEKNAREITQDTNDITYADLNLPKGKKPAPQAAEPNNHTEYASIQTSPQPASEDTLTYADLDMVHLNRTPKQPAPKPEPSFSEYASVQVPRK
T5 sequence (Q9P1W8 29-360): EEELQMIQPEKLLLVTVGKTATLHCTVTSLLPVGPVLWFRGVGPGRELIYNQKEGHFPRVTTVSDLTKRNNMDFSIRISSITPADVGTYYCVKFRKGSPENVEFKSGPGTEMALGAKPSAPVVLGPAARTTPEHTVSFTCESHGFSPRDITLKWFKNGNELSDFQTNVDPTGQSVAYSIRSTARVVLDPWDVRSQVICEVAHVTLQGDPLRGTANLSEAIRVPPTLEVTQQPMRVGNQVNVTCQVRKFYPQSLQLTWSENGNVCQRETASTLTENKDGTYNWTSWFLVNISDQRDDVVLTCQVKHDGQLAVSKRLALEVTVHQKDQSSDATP
full-length human SIRPβ1 D→H on Expi-CHO cells, sequence (O00241 30-398 D130H): as the sequence (O00241 30-398) above, with D101H counted along it

B1: Antibody E (antibody, human IgG1, kappa, L234A L235A)
heavy: not shown
light: DIVMTQSPLSLPVTPGEPASISCKSSQSLLYSNGYNYLDWYLQRPGQSPQLLIYLGSNRASGVPDRFSGSGSGTDFTLKISRVEAEDVGVFYCMQALQTPLTFGGGTKVEIKRTVAAPSVFIFPPSDEQLKSGTASVVCLLNNFYPREAKVQWKVDNALQSGNSQESVTEQDSKDSTYSLSSTLTLSKADYEKHKVYACEVTHQGLSSPVTKSFNRGEC
Usually Kd stands for the constant that tells how readily two partners part at equilibrium. Consider B1, for which the results for the binding result in experiment [1], in [5] and in experiment [7] were “no binding”, “no binding (tested: 1000 nM)” and “no binding”, respectively. Moreover, the Kd in experiment [2] worked out at 0.456 nM; in experiment [3] it was 0.42 nM; in experiment [4] it was 1230 nM; in [6] it was 1.16 nM; in experiment [8], 0.425 nM; in experiment [9], 0.33 nM. Also, the results for the Kd in [10] and in experiment [11] were 771 nM and 0.81 nM, respectively.

B2: Antibody A11 (antibody, human IgG4 S228P, kappa)
heavy: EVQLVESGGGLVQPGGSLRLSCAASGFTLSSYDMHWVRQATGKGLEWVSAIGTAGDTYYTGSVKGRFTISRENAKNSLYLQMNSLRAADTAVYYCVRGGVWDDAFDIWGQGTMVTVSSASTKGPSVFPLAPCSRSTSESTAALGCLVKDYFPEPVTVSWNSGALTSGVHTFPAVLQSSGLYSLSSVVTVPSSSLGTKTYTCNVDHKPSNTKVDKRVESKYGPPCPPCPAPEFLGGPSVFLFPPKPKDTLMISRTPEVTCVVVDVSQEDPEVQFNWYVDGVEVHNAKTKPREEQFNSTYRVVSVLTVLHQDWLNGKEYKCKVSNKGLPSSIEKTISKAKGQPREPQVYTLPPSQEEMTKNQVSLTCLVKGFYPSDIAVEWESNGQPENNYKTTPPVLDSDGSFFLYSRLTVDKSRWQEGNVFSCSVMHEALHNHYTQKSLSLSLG
light: DIQMTQSPSSLSASVGDRVTITCRASQDINNYLAWFQQKPGKAPKSLIYTASSLHSGVPSKFSGSGSGTDFTLTISSLQPEDFATYYCQQYVSYPYTFGQGTKLEIKRTVAAPSVFIFPPSDEQLKSGTASVVCLLNNFYPREAKVQWKVDNALQSGNSQESVTEQDSKDSTYSLSSTLTLSKADYEKHKVYACEVTHQGLSSPVTKSFNRGEC
For orientation: EC50 means the midpoint of the concentration-response curve. Read a high EC50 as a need for much substance. Consider B2, for which the EC50 in experiment [12] worked out at 0.3 nM. The results for the binding result in experiment [13] and in experiment [14] were “no binding (tested: about 200 nM)” and “no binding”, respectively. The “Blockade of Cellular CD47-Mediated SIRPα Signaling; IC50” value in [15] worked out at 0.02 nM; in experiment [16], 0.04 nM.

B3: anti-SIRPα antibody SIRP AB11 (antibody, V domains shown)
VH: QVQLVQSGAEVKKPGASVKVSCKASGYTFRGYGISWVRQAPGQGLEWMGWISAYGGETNYAQKLQGRVTMTTDTSTSTAYMELRSLRSDDTAVYYCAREAGSSWYDFDLWGRGTLVTVSS
VL: DIQMTQSPSSVSASVGDRVTITCRASQGISSWLAWYQQKPGKAPKLLIYAASNLQSGVPSRFSGSGSGTDFTLTISSLQPEDFATYYCQQGASFPITFGGGTKVEIKR
The IC50 is the concentration that gives 50% inhibition. A low value points to inhibition by little substance. In the case of B3, the EC50 turned out to be 0.1 nM in experiment [17]; 0.1 nM in experiment [12]; 0.2 nM in [18]; 0.1 nM in experiment [20]; 0.02 nM in experiment [14]. The 50% inhibitory concentration (IC50) in experiment [19] was 0.02 nM; in experiment [21] it was 0.05 nM.

These data come from patent publication US20230012273A1 (Boehringer Ingelheim, published 2023).
